Experimental data taken from the supplement of paper PMC9112550, “Optimization of the antimicrobial peptide Bac7 by deep mutational scanning” (BMC Biology, 2022).

System: Escherichia coli TOP10
Experiment: shrunken log2 fold change of peptide-encoding DNA abundance (4.5 h post-induction vs induction); higher = less antimicrobial activity (less host growth inhibition)
Conditions: time post-induction: 4.5 h; library: site-saturation at positions 5, 18, 19, 20
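Also: peptides expressed intracellularly from a pBAD plasmid library in pooled LB shake-flask culture, induced with 0.3% L-arabinose, DNA abundance read by NGS, three biological replicates, DESeq2 with apeglm shrinkage.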

In the case of RRIRQRPPRLPRPRPRPIPMPRP, the “shrunken log2 fold change” value is reported as -0.639.
With RRIRERPPRLPRPRPRPVIKPRP the “shrunken log2 fold change” value was -0.201.
In the case of RRIRNRPPRLPRPRPRPDQKPRP, the “shrunken log2 fold change” value is reported as -0.000687.
RRIRRRPPRLPRPRPRPNHSPRP was tested, and the “shrunken log2 fold change” value was -0.321.
With RRIRFRPPRLPRPRPRPCYKPRP the “shrunken log2 fold change” value was -0.228.
For RRIRERPPRLPRPRPRPFIVPRP, the “shrunken log2 fold change” value was -0.218.
With RRIRKRPPRLPRPRPRPTEYPRP the “shrunken log2 fold change” value was 0.0661.
RRIRGRPPRLPRPRPRPIPTPRP was tested, and the “shrunken log2 fold change” value was 0.00615.
With RRIRTRPPRLPRPRPRPCCHPRP the “shrunken log2 fold change” value was -0.0132.
In the case of RRIRVRPPRLPRPRPRPLLVPRP, the “shrunken log2 fold change” value is reported as -0.101.
RRIRGRPPRLPRPRPRPRALPRP was tested, and the “shrunken log2 fold change” value was 0.852.
With RRIRERPPRLPRPRPRPLIPPRP the “shrunken log2 fold change” value was -0.463.
With RRIRARPPRLPRPRPRPCKTPRP the “shrunken log2 fold change” value was 0.107.
With RRIRRRPPRLPRPRPRPVMRPRP the “shrunken log2 fold change” value was 0.714.
For RRIRGRPPRLPRPRPRPLFPPRP, the “shrunken log2 fold change” value was 0.406.
For RRIRYRPPRLPRPRPRPMEEPRP, the “shrunken log2 fold change” value was -0.138.
In the case of RRIRSRPPRLPRPRPRPKYRPRP, the “shrunken log2 fold change” value is reported as 0.127.
In the case of RRIRFRPPRLPRPRPRPPAIPRP, the “shrunken log2 fold change” value is reported as 0.363.
In the case of RRIRGRPPRLPRPRPRPLHPPRP, the “shrunken log2 fold change” value is reported as 0.697.
With RRIRFRPPRLPRPRPRPKPFPRP the “shrunken log2 fold change” value was 0.0515.
RRIRYRPPRLPRPRPRPFMHPRP was tested, and the “shrunken log2 fold change” value was -0.661.
With RRIRVRPPRLPRPRPRPSWMPRP the “shrunken log2 fold change” value was -0.139.
RRIRLRPPRLPRPRPRPKAHPRP was tested, and the “shrunken log2 fold change” value was 0.125.
RRIRRRPPRLPRPRPRPQHGPRP was tested, and the “shrunken log2 fold change” value was 0.198.
For RRIRQRPPRLPRPRPRPHVLPRP, the “shrunken log2 fold change” value was 0.0625.
For RRIRARPPRLPRPRPRPKGLPRP, the “shrunken log2 fold change” value was 0.433.
For RRIRMRPPRLPRPRPRPAMYPRP, the “shrunken log2 fold change” value was 2.95.
RRIRTRPPRLPRPRPRPYPSPRP was tested, and the “shrunken log2 fold change” value was -0.575.
RRIRGRPPRLPRPRPRPPRVPRP was tested, and the “shrunken log2 fold change” value was 1.15.
In the case of RRIRERPPRLPRPRPRPMILPRP, the “shrunken log2 fold change” value is reported as -0.388.
With RRIRFRPPRLPRPRPRPCEQPRP the “shrunken log2 fold change” value was -0.00534.
In the case of RRIRHRPPRLPRPRPRPFMNPRP, the “shrunken log2 fold change” value is reported as -0.0862.
For RRIRMRPPRLPRPRPRPNVLPRP, the “shrunken log2 fold change” value was 0.359.
RRIRMRPPRLPRPRPRPMFKPRP was tested, and the “shrunken log2 fold change” value was 0.0609.
In the case of RRIRARPPRLPRPRPRPVVSPRP, the “shrunken log2 fold change” value is reported as 0.188.
For RRIRWRPPRLPRPRPRPHEFPRP, the “shrunken log2 fold change” value was -0.0844.
In the case of RRIRPRPPRLPRPRPRPAPLPRP, the “shrunken log2 fold change” value is reported as 0.407.
In the case of RRIRTRPPRLPRPRPRPDPQPRP, the “shrunken log2 fold change” value is reported as -0.0945.
In the case of RRIRHRPPRLPRPRPRPGGSPRP, the “shrunken log2 fold change” value is reported as -0.0606.
In the case of RRIRIRPPRLPRPRPRPTFVPRP, the “shrunken log2 fold change” value is reported as -0.582.
In the case of RRIRYRPPRLPRPRPRPWKSPRP, the “shrunken log2 fold change” value is reported as -0.118.
With RRIRKRPPRLPRPRPRPNLIPRP the “shrunken log2 fold change” value was -0.494.
In the case of RRIRFRPPRLPRPRPRPKWRPRP, the “shrunken log2 fold change” value is reported as 0.413.
In the case of RRIRPRPPRLPRPRPRPVLKPRP, the “shrunken log2 fold change” value is reported as -0.267.
With RRIRFRPPRLPRPRPRPTMEPRP the “shrunken log2 fold change” value was -0.266.
With RRIRSRPPRLPRPRPRPTPFPRP the “shrunken log2 fold change” value was -0.0055.
With RRIRNRPPRLPRPRPRPFYLPRP the “shrunken log2 fold change” value was -0.0716.
RRIRRRPPRLPRPRPRPRYFPRP was tested, and the “shrunken log2 fold change” value was 0.502.
With RRIRKRPPRLPRPRPRPHDAPRP the “shrunken log2 fold change” value was 0.437.
RRIRGRPPRLPRPRPRPVTRPRP was tested, and the “shrunken log2 fold change” value was 0.383.
For RRIRTRPPRLPRPRPRPYVGPRP, the “shrunken log2 fold change” value was -0.689.
RRIRARPPRLPRPRPRPYHYPRP was tested, and the “shrunken log2 fold change” value was -0.0868.
RRIRKRPPRLPRPRPRPQNHPRP was tested, and the “shrunken log2 fold change” value was 2.37.
In the case of RRIRKRPPRLPRPRPRPDPFPRP, the “shrunken log2 fold change” value is reported as -0.0704.
RRIRCRPPRLPRPRPRPSRAPRP was tested, and the “shrunken log2 fold change” value was 0.113.
In the case of RRIRTRPPRLPRPRPRPIDVPRP, the “shrunken log2 fold change” value is reported as -0.0217.
In the case of RRIRSRPPRLPRPRPRPWHHPRP, the “shrunken log2 fold change” value is reported as -0.0809.
In the case of RRIRHRPPRLPRPRPRPITPPRP, the “shrunken log2 fold change” value is reported as -0.538.
RRIRIRPPRLPRPRPRPRYVPRP was tested, and the “shrunken log2 fold change” value was -0.45.
RRIRTRPPRLPRPRPRPLNGPRP was tested, and the “shrunken log2 fold change” value was -0.235.
RRIRIRPPRLPRPRPRPYFLPRP was tested, and the “shrunken log2 fold change” value was -0.921.
With RRIRRRPPRLPRPRPRPSFQPRP the “shrunken log2 fold change” value was 0.0356.
With RRIRFRPPRLPRPRPRPYNAPRP the “shrunken log2 fold change” value was -0.714.
For RRIRFRPPRLPRPRPRPRIIPRP, the “shrunken log2 fold change” value was -0.514.
RRIRRRPPRLPRPRPRPVQSPRP was tested, and the “shrunken log2 fold change” value was 0.0557.
In the case of RRIRKRPPRLPRPRPRPDGIPRP, the “shrunken log2 fold change” value is reported as 0.00242.
In the case of RRIRARPPRLPRPRPRPHKPPRP, the “shrunken log2 fold change” value is reported as 0.148.
RRIRVRPPRLPRPRPRPRIRPRP was tested, and the “shrunken log2 fold change” value was -0.202.
In the case of RRIRHRPPRLPRPRPRPRHLPRP, the “shrunken log2 fold change” value is reported as 0.184.
For RRIRYRPPRLPRPRPRPAQIPRP, the “shrunken log2 fold change” value was -0.347.
With RRIRRRPPRLPRPRPRPTPEPRP the “shrunken log2 fold change” value was 0.572.
In the case of RRIRIRPPRLPRPRPRPKRGPRP, the “shrunken log2 fold change” value is reported as 0.2.
RRIRGRPPRLPRPRPRPLTEPRP was tested, and the “shrunken log2 fold change” value was 1.22.
For RRIRQRPPRLPRPRPRPAQLPRP, the “shrunken log2 fold change” value was 0.0104.
With RRIRVRPPRLPRPRPRPCLYPRP the “shrunken log2 fold change” value was -0.0189.
In the case of RRIRERPPRLPRPRPRPYKFPRP, the “shrunken log2 fold change” value is reported as -0.835.
With RRIRPRPPRLPRPRPRPCADPRP the “shrunken log2 fold change” value was 0.213.
For RRIRIRPPRLPRPRPRPWGSPRP, the “shrunken log2 fold change” value was -0.488.
RRIRLRPPRLPRPRPRPAFVPRP was tested, and the “shrunken log2 fold change” value was 0.205.
For RRIRNRPPRLPRPRPRPFHEPRP, the “shrunken log2 fold change” value was -0.00822.
RRIRNRPPRLPRPRPRPQIHPRP was tested, and the “shrunken log2 fold change” value was -0.364.
RRIRRRPPRLPRPRPRPEEMPRP was tested, and the “shrunken log2 fold change” value was 1.38.
RRIRRRPPRLPRPRPRPRAKPRP was tested, and the “shrunken log2 fold change” value was 0.203.
In the case of RRIRQRPPRLPRPRPRPNHSPRP, the “shrunken log2 fold change” value is reported as -0.762.
In the case of RRIRRRPPRLPRPRPRPLNIPRP, the “shrunken log2 fold change” value is reported as -0.651.
For RRIRHRPPRLPRPRPRPNPNPRP, the “shrunken log2 fold change” value was -0.202.
RRIRDRPPRLPRPRPRPHMNPRP was tested, and the “shrunken log2 fold change” value was 0.001.
In the case of RRIRQRPPRLPRPRPRPLDFPRP, the “shrunken log2 fold change” value is reported as -0.0491.
For RRIRERPPRLPRPRPRPYLKPRP, the “shrunken log2 fold change” value was 0.0189.
RRIRSRPPRLPRPRPRPWGFPRP was tested, and the “shrunken log2 fold change” value was -0.0589.
RRIRVRPPRLPRPRPRPWMEPRP was tested, and the “shrunken log2 fold change” value was -0.124.
For RRIRYRPPRLPRPRPRPLGEPRP, the “shrunken log2 fold change” value was -0.172.
With RRIRVRPPRLPRPRPRPGPLPRP the “shrunken log2 fold change” value was 0.0392.
For RRIRDRPPRLPRPRPRPITHPRP, the “shrunken log2 fold change” value was -0.305.
With RRIRKRPPRLPRPRPRPWRFPRP the “shrunken log2 fold change” value was 0.234.
With RRIRRRPPRLPRPRPRPQTNPRP the “shrunken log2 fold change” value was 0.257.
With RRIRGRPPRLPRPRPRPYAPPRP the “shrunken log2 fold change” value was 0.116.
For RRIRMRPPRLPRPRPRPPNLPRP, the “shrunken log2 fold change” value was 0.0707.
RRIRPRPPRLPRPRPRPQFQPRP was tested, and the “shrunken log2 fold change” value was -0.192.
With RRIRKRPPRLPRPRPRPGMDPRP the “shrunken log2 fold change” value was 0.195.
In the case of RRIRDRPPRLPRPRPRPEKTPRP, the “shrunken log2 fold change” value is reported as 0.0897.
With RRIRFRPPRLPRPRPRPVPMPRP the “shrunken log2 fold change” value was 0.108.
RRIRSRPPRLPRPRPRPYDIPRP was tested, and the “shrunken log2 fold change” value was -0.0295.
With RRIRIRPPRLPRPRPRPKETPRP the “shrunken log2 fold change” value was -0.0675.
For RRIRVRPPRLPRPRPRPGCNPRP, the “shrunken log2 fold change” value was -0.216.
For RRIRCRPPRLPRPRPRPLDCPRP, the “shrunken log2 fold change” value was 0.0147.
With RRIRTRPPRLPRPRPRPFFNPRP the “shrunken log2 fold change” value was -0.582.
RRIRVRPPRLPRPRPRPTTEPRP was tested, and the “shrunken log2 fold change” value was 0.14.
With RRIRARPPRLPRPRPRPYRAPRP the “shrunken log2 fold change” value was -0.141.
In the case of RRIRYRPPRLPRPRPRPATRPRP, the “shrunken log2 fold change” value is reported as 0.098.
In the case of RRIRRRPPRLPRPRPRPEHGPRP, the “shrunken log2 fold change” value is reported as 0.0177.
With RRIRGRPPRLPRPRPRPFCHPRP the “shrunken log2 fold change” value was 0.418.
For RRIRLRPPRLPRPRPRPIENPRP, the “shrunken log2 fold change” value was 0.0407.
RRIRSRPPRLPRPRPRPCGSPRP was tested, and the “shrunken log2 fold change” value was 0.102.
In the case of RRIRMRPPRLPRPRPRPCIDPRP, the “shrunken log2 fold change” value is reported as 0.428.
For RRIRSRPPRLPRPRPRPERYPRP, the “shrunken log2 fold change” value was -0.037.
With RRIRKRPPRLPRPRPRPQANPRP the “shrunken log2 fold change” value was 0.066.
With RRIRNRPPRLPRPRPRPYKVPRP the “shrunken log2 fold change” value was -0.324.
With RRIRLRPPRLPRPRPRPHFTPRP the “shrunken log2 fold change” value was -0.355.
With RRIRNRPPRLPRPRPRPLRTPRP the “shrunken log2 fold change” value was 0.717.
RRIRWRPPRLPRPRPRPFDHPRP was tested, and the “shrunken log2 fold change” value was 0.124.
RRIRRRPPRLPRPRPRPREEPRP was tested, and the “shrunken log2 fold change” value was 0.919.
For RRIRVRPPRLPRPRPRPGLFPRP, the “shrunken log2 fold change” value was 0.0268.
With RRIRHRPPRLPRPRPRPMDDPRP the “shrunken log2 fold change” value was -0.118.
With RRIRKRPPRLPRPRPRPGKTPRP the “shrunken log2 fold change” value was -0.0179.
